Source: PMC7820951

Substrate: CC(C)O
Assay: purified protein
Settings: alcohol oxidation; cofactor F420

B1: ADF (F420-dependent alcohol dehydrogenase) (Methanoculleus thermophilus) (protein)
chain: MKTQIGYFASLEQYRPMDALEQAIRAEKVGFDSVWVDDHFHPWYHDNAQSAQAWAWMGAALQATKKVFISTCITCPIMRYNPAIVAQTFATLRQMYPGRVGVAVGAGEAMNEVPVTGEWPSVPVRQDMTVEAVKVMRMLWESDKPVTFKGDYFTLDKAFLYTKPDDEVPLYFSGMGPKGAKLAGMYGDHLMTVAAAPSTLKNVTIPKFEEGAREAGKDPSKMEHAMLIWYSVDPDYDKAVEALRFWAGCLVPSMFKYKVYDPKEVQLHANLVHCDTIKENYMCATDAEEMIKEIERFKEAGINHFCLGNSSPDVNFGIDIFKEVIPAVRD
  Km: 1300 µM
  kcat: 1.7 s⁻¹
